{
  "source": "patent US20230391860A1",
  "about": "(CANON MEDICAL SYSTEMS, published 2023)",
  "binders": {"B1": {"name": "human denatured CRP-specific antibody produced from hybridoma mCRP-3C (antibody, mouse IgG2b, V domains shown)", "VH": "QVQLQQSGAELVRPGASVKLSCKALDYTFTDYEMHWVKQTPVHGLEWIGAIHPGRGGTAYNQKFKGKATLTADKSSSTAYMELSSLTSEDSGVYYCTSYHGGYWGQGTTLTVSS", "VL": "DVVMTQTPLSLPVSLGDQASISCRSSQSLVHSNENTYLLWYLQKPGQSPKLLIYKVSNRFSGVPDRFSGSGSGTDFTLKISRVEAEDLGVYFCSQTTHVPWTFGGGTKLEIKR", "notes": "Mouse IgG2b, kappa; also called 3C antibody"}},
  "experiment_in_all_cases": "ELISA on immobilised peptide, antibody 1 ug/mL",
  "key": {"[1]": {"target": "T1, mCRP (19) (human)", "T1 peptide": "QTDMSRKAFVC", "text": "(§1) The following materials were used as materials for epitope analysis. [0156] (a) Plate: Immunoplate for ELISA (96 well) manufactured by Nunc [0157] […] (c) Solid-phase buffer: 0.1 M carbonate buffer pH 9.5 (IBL) [0159] (d) Antiserum dilution buffer: 1% BSA, 0.05% Tween-20 (Kanto Chemical Co., Inc.) in PBS [0160] (e) Labeled antibody dilution buffer: 1% BSA, 0.05% Tween-20 in PBS [0161] (f) Washing buffer: 0.05% Tween-20 in 0.1 M PB [0162] (g) Substrate buffer: K₂HPO₄-citrate buffer (pH 5.1) (IBL) [0163] (h) Reaction stop solution: 1 mol/L-H₂SO₄ (Wako Pure Chemical Industries, Ltd.)\n(§2) Epitope analysis was performed by the following procedure. [0166] (a) Peptides were immobilized on a plate by standing at 50 ng/well (50 μL/well) for 16 hours at 4° C. […] (b) Solid phase peptides were washed twice with Dulbecco's PBS (D-PBS) (200 μL/well). [0168] (c) Blocking was performed by adding 200 μL of D-PBS containing 0.1% BSA and 0.05% NaN₃ to each well and leaving it at 4° C. overnight. [0169] (d) Each well was washed twice with the washing buffer. [0170] (e) The antibody was diluted to 1 μg/mL with the dilution buffer and the diluted solution was added to each well (50 μL/well) and left at 37° C. for 30 minutes. [0171] (f) Each well was washed four or more times with the washing buffer. [0172] (g) Anti-mouse IgG (γ-specific)-HRP, a labeled antibody, was added to each well (50 μL/well) and left at 37° C. for 30 minutes. [0173] (h) Each well was washed four or more times with the washing buffer. [0174] (i) A chromogenic reaction was started by adding a substrate solution (400 μg/mL) to each well (100 μL/well), and the reaction was allowed to proceed for 15 minutes at room temperature in the dark. [0175] (j) After 15 minutes, the reaction was stopped by addition of 1 mol/L sulfuric acid (100 μL/well), and absorbance (490 nm) was measured."}, "[2]": {"target": "T2, mCRP (29) (human)", "T2 peptide": "FPKESDTSYVC", "text": "as §1, §2"}, "[3]": {"target": "T3, mCRP (39) (human)", "T3 peptide": "SLKAPLTKPLC", "text": "as §1, §2"}, "[4]": {"target": "T4, mCRP (49) (human)", "T4 peptide": "KAFTVCLHFYC", "text": "as §1, §2"}, "[5]": {"target": "T5, mCRP (59) (human)", "T5 peptide": "TELSSTRGYSC", "text": "as §1, §2"}, "[6]": {"target": "T6, mCRP (69) (human)", "T6 peptide": "IFSYATKRQDC", "text": "as §1, §2"}, "[7]": {"target": "T7, mCRP (79) (human)", "T7 peptide": "NEILIFWSKDC", "text": "as §1, §2"}, "[8]": {"target": "T8, mCRP (89) (human)", "T8 peptide": "IGYSFTVGGSC", "text": "as §1, §2"}, "[9]": {"target": "T9, mCRP (99) (human)", "T9 peptide": "EILFEVPEVTC", "text": "as §1, §2"}, "[10]": {"target": "T10, mCRP (109) (human)", "T10 peptide": "VAPVHICTSWC", "text": "as §1, §2"}, "[11]": {"target": "T11, mCRP (119) (human)", "T11 peptide": "ESASGIVEFWC", "text": "as §1, §2"}, "[12]": {"target": "T12, mCRP (129) (human)", "T12 peptide": "VDGKPRVRKSC", "text": "as §1, §2"}, "[13]": {"target": "T13, mCRP (139) (human)", "T13 peptide": "LKKGYTVGAEC", "text": "as §1, §2"}, "[14]": {"target": "T14, mCRP (149) (human)", "T14 peptide": "ASIILGQEQDC", "text": "as §1, §2"}, "[15]": {"target": "T15, mCRP (159) (human)", "T15 peptide": "SFGGNFEGSQC", "text": "as §1, §2"}, "[16]": {"target": "T16, mCRP (169) (human)", "T16 peptide": "SLVGDIGNVNC", "text": "as §1, §2"}, "[17]": {"target": "T17, mCRP (179) (human)", "T17 peptide": "MWDFVLSPDEC", "text": "as §1, §2"}, "[18]": {"target": "T18, mCRP (189) (human)", "T18 peptide": "INTIYLGGPFC", "text": "as §1, §2"}, "[19]": {"target": "T19, mCRP (199) (human)", "T19 peptide": "SPNVLNWRALC", "text": "as §1, §2"}, "[20]": {"target": "T20, mCRP (209) (human)", "T20 peptide": "KYEVQGEVFTKPQLWPC", "text": "as §1, §2"}, "[21]": {"target": "T21, mCRP (31-60) (human)", "T21 peptide": "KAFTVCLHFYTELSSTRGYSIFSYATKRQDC"}, "[22]": {"target": "T22, mCRP (61-90) (human)", "T22 peptide": "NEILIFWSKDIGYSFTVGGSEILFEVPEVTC"}, "[23]": {"target": "T23, mCRP (121-150) (human)", "T23 peptide": "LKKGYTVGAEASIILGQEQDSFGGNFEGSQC"}, "[24]": {"target": "T24, mCRP (151-180) (human)", "T24 peptide": "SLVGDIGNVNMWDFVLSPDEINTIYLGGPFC"}, "[25]": {"target": "T25, mCRP (181-206) (human)", "T25 peptide": "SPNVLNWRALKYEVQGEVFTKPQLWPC"}},
  "data": [
    {"binder": "B1", "values": [
      {"measurement": "absorbance (490 nm)", "setting": "[1]", "result": 0.004},
      {"measurement": "absorbance (490 nm)", "setting": "[2]", "result": -0.001},
      {"measurement": "absorbance (490 nm)", "setting": "[3]", "result": 0.001},
      {"measurement": "absorbance (490 nm)", "setting": "[4]", "result": 0},
      {"measurement": "absorbance (490 nm)", "setting": "[5]", "result": 0.001},
      {"measurement": "absorbance (490 nm)", "setting": "[6]", "result": 0.002},
      {"measurement": "absorbance (490 nm)", "setting": "[7]", "result": 0},
      {"measurement": "absorbance (490 nm)", "setting": "[8]", "result": 0},
      {"measurement": "absorbance (490 nm)", "setting": "[9]", "result": 1.58},
      {"measurement": "absorbance (490 nm)", "setting": "[10]", "result": -0.001},
      {"measurement": "absorbance (490 nm)", "setting": "[11]", "result": 0.005},
      {"measurement": "absorbance (490 nm)", "setting": "[12]", "result": 0.002},
      {"measurement": "absorbance (490 nm)", "setting": "[13]", "result": 0.002},
      {"measurement": "absorbance (490 nm)", "setting": "[14]", "result": 0.001},
      {"measurement": "absorbance (490 nm)", "setting": "[15]", "result": 0.002},
      {"measurement": "absorbance (490 nm)", "setting": "[16]", "result": 0.001},
      {"measurement": "absorbance (490 nm)", "setting": "[17]", "result": 0.003},
      {"measurement": "absorbance (490 nm)", "setting": "[18]", "result": 0.007},
      {"measurement": "absorbance (490 nm)", "setting": "[19]", "result": 0.006},
      {"measurement": "absorbance (490 nm)", "setting": "[20]", "result": 0},
      {"measurement": "absorbance (490 nm)", "setting": "[21]", "result": 0.03},
      {"measurement": "absorbance (490 nm)", "setting": "[22]", "result": 1.98},
      {"measurement": "absorbance (490 nm)", "setting": "[23]", "result": 0.017},
      {"measurement": "absorbance (490 nm)", "setting": "[24]", "result": 0.108},
      {"measurement": "absorbance (490 nm)", "setting": "[25]", "result": 0.006}
    ]}
  ]
}
